Peptide text beside a SMILES is read from it.
Columns and labels:
[1] = system: HLA-A2+ primary ALL cells; test: 51Cr release cytotoxicity assay, primary ALL; type: cell-based, human
Procedure: Peptides were pulsed onto TAP-deficient T2 cells, and the maximum binding and the stability over time were assessed by flow cytometry. […] Additional experiments were carried out to characterize these peptides, in particular, CYP190.

HLA-A*0201 = HLA-A*0201 (Homo sapiens, UniProt P04439, D140Y/D185E/D98H/E176V/E277Q/G131W/G231S/I119V/I121R/I166T/I218V/L300P/L318F/N151K/N90K/P208A/P217A/Q86G/Q94H/R138H/R169H/T345S); test: HLA-A2/peptide complex stability on TAP-deficient T2 cells; type: binding
Procedure: In particular, T2 cells were incubated with peptide in serum-free medium for up to 18 hours, harvested, washed, and subsequently stained with FITC-labeled anti-HLA-A2 mAb BB7.2 (maximum peptide binding). Increase in fluorescence intensity was determined as a function of peptide binding. For analysis of complex stability, T2 cells were cultured in serum-free media for an additional 2, 4, 6, or 24 hours, and subsequently analyzed for HLA-A2 expression by flow cytometry.
The T2 assay described above was used to determine binding and dissociation rate of heteroclitic peptides engineered for optimal binding to HLA molecules.

[2] = system: CD8+ T cells of HLA-A2+ cancer patients; test: Ex vivo generation of peptide-specific CTL from cancer patients; type: cell-based, human
From the text: Similar to experiments described for healthy donors, we next attempted to generate CYP1B1-specific CTL from peripheral blood of cancer patients. […] Due to lower numbers of PBMC available, CYP246-specific CTL cultures were only initiated in patients 3 and 4. […] Because autologous tumor cells were not available from these patients, we tested the same FL samples described above as primary tumor targets. CYP239-specific CTL from patient 1 lysed both HLA-A2^+ FL samples but not the HLA-A2^− (18% vs. 0% at an E:T ration of 30:1).

[3] = system: CD8+ T cells of healthy HLA-A2+ donors; test: Ex vivo generation of peptide-specific CTL from healthy HLA-A2+ donors
Procedure: From a single blood draw, professional APCs, including DCs and CD40-activated B cells, are generated, and the remaining PBMCs are enriched for CD8+ T cells. T cells are primarily stimulated with peptide-pulsed DC, and repeatedly stimulated with peptide-pulsed CD40-B cells. Peptide-specificity and HLA-restriction is analyzed after a total of 2-5 stimulations, depending on the antigen under study.
CTL were generated as previously described (Vonderheide et al., Immunity 10:673-679, 1999), CD8^+ T cells (>80% CD8^+, >95% CD3^+, <2.0% CD4^+, and <5% CD56^+) were isolated from PBMC by negative selection using magnetic beads. B cells were activated via CD40, and DC were prepared from peripheral blood monocytes with IL-4 and GM-CSF (Schultze et al., J. Clin. Invest. 100:2757-2765, 1997). DC were harvested after 7 days, pulsed with peptide (40 μg/ml) and β2-microglobulin (3 μg/ml) for 2 hr at 37° C., irradiated (33 Gy), and added to autologous CD8+ T cells at a T:DC ratio of 20:1 in RPMI media supplemented with 10% human AB serum, 2 mM glutamine, 15 μg/ml gentamicin, 20 mMHEPES, and 15 ng/ml IL-7 (Endogen, Woburn, Mass.). At day 7 and weekly thereafter, T cell cultures were harvested and restimulated with irradiated (33 Gy), peptide-pulsed (10 μg/ml) autologous CD40-activated B cells. […]

T2 cells = test: 51Cr release cytotoxicity assay, peptide-pulsed T2 cells; type: cell-based; details: for recognition by CYP239-specific CTL of target cells pulsed with heteroclitic peptide: CTL generated against wild type CYP239
From the text: To assess cytolytic function CTL lines were used after at least four antigenic stimulations in standard ^51Cr release assays as previously described (Vonderheide et al., Immunity 10:673-679, 1999).

[4] = system: primary follicular lymphoma (FL) cells; test: 51Cr release cytotoxicity assay, primary follicular lymphoma; type: cell-based, human; details: HLA-A2+ CYP1B1+ FL, CTL from healthy donors
Procedure: CYP1B1-specific CTLs were then evaluated for cytotoxicity against primary tumor tissue.

[5] = system: T cells from HLA-A2+ multiple myeloma patients; details: n=10
[6] = system: T cells from HLA-A2+ healthy donors; details: for healthy donors with peptide-specific T cells detected / expansion: n=8, day 10
[7] = system: HLA-A2+ ovarian carcinoma cell line 36M
From the text: To assess cytolytic function CTL lines were used after at least four antigenic stimulations in standard ^51Cr release assays as previously described (Vonderheide et al., Immunity 10:673-679, 1999). […] Monocytes as targets were isolated from PBMC by RosetteSep® (Stem Cell Technologies, Vancouver) following the manufacturer's recommendations.

[8] = molecular target: T1, HLA-A*0201 on the surface of TAP-deficient T2 cells (human); test: T2 cell assay of HLA-A*0201/peptide complex stability, flow cytometry
T1 construct: detected with FITC-labeled mAb BB7.2; also called HLA-A2

[9] = molecular target: T1, HLA-A*0201 on the surface of …; test: T2 cell HLA-A*0201 stabilisation assay, flow cytometry with FITC-BB7.2
[10] = molecular target: T1, HLA-A*0201 on the surface of …; test: TAP-deficient T2 cell assay, flow cytometry

FLDPRPLTV [CYP190]
lysis of HLA-A2+ primary ALL cells by peptide-specific CTL [1]: can lyse | HLA-A2/peptide complex stability (HLA-A*0201): longest half-life on the cell surface | time after peptide withdrawal at which peptide/A2 complexes can be detected (HLA-A*0201): ≥ 24 h | generation of peptide-specific CTL from cancer patients [2]: can be generated from HLA-A2^+ cancer patients | generation of peptide-specific CTL from normal donors [3]: can be generated from normal HLA-A2^+ donors | lysis of peptide-pulsed T2 cells by peptide-specific CTL (T2 cells; CTL from healthy donors): can lyse

CC(C)C[C@H](NC(=O)[C@@H](N)Cc1c[nH]c2ccccc12)C(=O)N[C@@H](CCC(N)=O)C(=O)N[C@@H](Cc1ccc(O)cc1)C(=O)N[C@@H](Cc1ccccc1)C(=O)N1CCC[C@H]1C(=O)N[C@@H](CC(N)=O)C(=O)N1CCC[C@H]1C(=O)N[C@H](C(=O)O)C(C)C [CYP246] (H-WLQYFPNPV-OH; N-terminus and C-terminus assumed)
cytotoxicity for HLA-A2+ FL by peptide-specific CTL [4]: cytotoxic | patients with reactive T cells >0.05% on day 10 [5]: 5 | highest level of peptide-specific T cells in one healthy donor ([6]; day 10): 0.5% | healthy donors with peptide-specific T cells detected / expansion [6]: 2 | cytotoxicity against 36M by peptide-specific CTL [7]: specific cytotoxicity

CSCC[C@H](NC(=O)[C@@H](NC(=O)[C@H](CC(=O)O)NC(=O)[C@@H](NC(=O)[C@H](CC(C)C)NC(=O)[C@@H](N)Cc1ccc(O)cc1)C(C)C)C(C)C)C(=O)N1CCC[C@H]1C(=O)N[C@@H](Cc1c[nH]c2ccccc12)C(=O)N[C@H](C(=O)O)C(C)C [CYP239-19] (H-YLVDVMPWV-OH; N-terminus and C-terminus assumed)
recognition by CYP239-specific CTL of target cells pulsed with heteroclitic peptide (T2 cells): equally well

CSCC[C@H](NC(=O)[C@@H](NC(=O)[C@H](CC(=O)O)NC(=O)[C@H](Cc1ccc(O)cc1)NC(=O)[C@H](CC(C)C)NC(=O)[C@@H](N)Cc1ccc(O)cc1)C(C)C)C(=O)N1CCC[C@H]1C(=O)N[C@@H](Cc1c[nH]c2ccccc12)C(=O)N[C@H](C(=O)O)C(C)C [CYP239-139] (H-YLYDVMPWV-OH; N-terminus and C-terminus assumed)
recognition by CYP239-specific CTL of target cells pulsed with heteroclitic peptide (T2 cells): do not recognize

CSCC[C@H](NC(=O)[C@@H](NC(=O)[C@H](CC(=O)O)NC(=O)[C@@H](NC(=O)[C@H](CC(C)C)NC(=O)[C@@H](N)CO)C(C)C)C(C)C)C(=O)N1CCC[C@H]1C(=O)N[C@@H](Cc1c[nH]c2ccccc12)C(=O)N[C@@H](CC(C)C)C(=O)O [CYP239] (H-SLVDVMPWL-OH)
cytotoxicity for HLA-A2+ FL by peptide-specific CTL [4]: cytotoxic | patients with reactive T cells >0.05% on day 10 [5]: 4 | healthy donors with peptide-specific T cells detected / expansion [6]: No expansion | cytotoxicity against 36M by peptide-specific CTL [7]: specific cytotoxicity

B1: CYP239-139 heteroclitic peptide (YLYDVMPWV) (peptide)
peptide: YLYDVMPWV
notes: Designed variant of CYP239 changed at positions 1, 3 and 9
T2 assay result at 0 h post-pulsing [8]: 2 | T2 assay result at 2 h post-pulsing [8]: 1.51 | T2 assay result at 4 h post-pulsing [8]: 1.24 | T2 assay result at 6 h post-pulsing [8]: 1.16 | T2 assay result at 24 h post-pulsing [8]: 0.73

B2: CYP239-19 heteroclitic peptide (YLVDVMPWV) (peptide)
peptide: YLVDVMPWV
notes: Designed variant of CYP239 changed at positions 1 and 9
T2 assay result at 0 h post-pulsing [8]: 2.16 | T2 assay result at 2 h post-pulsing [8]: 1.57 | T2 assay result at 4 h post-pulsing [8]: 1.31 | T2 assay result at 6 h post-pulsing [8]: 1.13 | T2 assay result at 24 h post-pulsing [8]: 0.72

B3: CYP239 peptide from cytochrome P450 1B1 (SLVDVMPWL) (peptide)
peptide: SLVDVMPWL
notes: Synthetic peptide bought from Sigma Genosys
Binding affinity [FI] (fluorescence index) [9]: 3.8 | T2 assay result at 0 h post-pulsing [8]: 1.91 | T2 assay result at 2 h post-pulsing [8]: 1.37 | T2 assay result at 4 h post-pulsing [8]: 0.78 | T2 assay result at 6 h post-pulsing [8]: 0.58 | T2 assay result at 24 h post-pulsing [8]: 0.12

B4: CYP246 peptide from cytochrome P450 1B1 (WLQYFPNPV) (peptide)
peptide: WLQYFPNPV
Binding affinity [FI] (fluorescence index) [9]: 3.4

B5: CYP190 peptide from cytochrome P450 1B1 (FLDPRPLTV) (peptide)
peptide: FLDPRPLTV
binding result [10]: binds
